Laboratory results published in article PMC6377654, “Screening and identification of a non-peptide antagonist for the peptide hormone receptor in Arabidopsis” (Communications Biology, 2019).
One block for each molecule: values may come before it.

Key:
[1] = target: T1, BAM1 (Arabidopsis thaliana, UniProt O49545); test: competition binding of fluorescent Alexa488-CLE9 on bead-immobilized BAM1 (confocal imaging); confirmed by competitive photoaffinity labeling with […]ASA-CLE9 and […]ASA-[Ara3]CLV3
T1 construct: BAM1-HT: Met1 to Ile700 region (signal peptide, 22 LRRs, transmembrane domain), cytoplasmic kinase domain replaced with HaloTag; expressed in tobacco BY-2 cells, immobilized on HaloLink Sepharose beads
T1 sequence (O49545 1-700): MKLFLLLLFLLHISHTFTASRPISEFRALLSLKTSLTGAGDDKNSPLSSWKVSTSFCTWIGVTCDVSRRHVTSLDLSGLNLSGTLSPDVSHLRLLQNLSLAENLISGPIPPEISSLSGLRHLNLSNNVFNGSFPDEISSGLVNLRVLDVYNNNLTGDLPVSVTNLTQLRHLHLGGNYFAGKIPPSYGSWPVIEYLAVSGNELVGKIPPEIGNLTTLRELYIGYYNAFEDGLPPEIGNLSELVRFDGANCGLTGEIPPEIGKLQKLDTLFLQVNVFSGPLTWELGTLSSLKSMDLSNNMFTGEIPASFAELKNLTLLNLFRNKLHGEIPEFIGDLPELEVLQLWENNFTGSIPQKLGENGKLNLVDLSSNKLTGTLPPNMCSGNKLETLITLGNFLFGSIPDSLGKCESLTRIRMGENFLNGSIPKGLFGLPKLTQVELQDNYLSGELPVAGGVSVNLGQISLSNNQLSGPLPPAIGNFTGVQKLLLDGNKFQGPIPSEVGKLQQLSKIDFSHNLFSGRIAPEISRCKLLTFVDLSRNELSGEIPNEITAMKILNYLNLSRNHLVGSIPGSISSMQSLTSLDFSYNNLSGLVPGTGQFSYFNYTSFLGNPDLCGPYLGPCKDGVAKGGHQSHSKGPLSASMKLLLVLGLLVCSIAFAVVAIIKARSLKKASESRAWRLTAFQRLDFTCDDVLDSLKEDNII

[2] = target: BAM1-HaloTag (recombinant BAM1 in which the cytoplasmic kinase domain was replaced with HaloTag) (Arabidopsis) (UniProt O49545); test: cross-linking; photoaffinity labeling as a3, in the presence of 10 μM NPD12704
[3] = target: CLV1 (Arabidopsis thaliana) (UniProt Q9SYQ8); conditions: cited from earlier work
[4] = target: BAM1 (Arabidopsis thaliana) (UniProt O49545); conditions: cited from earlier work
[5] = target: BAM2 (Arabidopsis thaliana) (UniProt Q9M2Z1); conditions: cited from earlier work
[6] = target: BAM1-HaloTag (recombinant BAM1 in which the cytoplasmic kinase domain was replaced with HaloTag) (Arabidopsis) (UniProt O49545); test: cross-linking; photoaffinity labeling as a3, in the presence of 100 μM NPD12704

Sequence of BAM2 (Arabidopsis thaliana) (Q9M2Z1 23-636): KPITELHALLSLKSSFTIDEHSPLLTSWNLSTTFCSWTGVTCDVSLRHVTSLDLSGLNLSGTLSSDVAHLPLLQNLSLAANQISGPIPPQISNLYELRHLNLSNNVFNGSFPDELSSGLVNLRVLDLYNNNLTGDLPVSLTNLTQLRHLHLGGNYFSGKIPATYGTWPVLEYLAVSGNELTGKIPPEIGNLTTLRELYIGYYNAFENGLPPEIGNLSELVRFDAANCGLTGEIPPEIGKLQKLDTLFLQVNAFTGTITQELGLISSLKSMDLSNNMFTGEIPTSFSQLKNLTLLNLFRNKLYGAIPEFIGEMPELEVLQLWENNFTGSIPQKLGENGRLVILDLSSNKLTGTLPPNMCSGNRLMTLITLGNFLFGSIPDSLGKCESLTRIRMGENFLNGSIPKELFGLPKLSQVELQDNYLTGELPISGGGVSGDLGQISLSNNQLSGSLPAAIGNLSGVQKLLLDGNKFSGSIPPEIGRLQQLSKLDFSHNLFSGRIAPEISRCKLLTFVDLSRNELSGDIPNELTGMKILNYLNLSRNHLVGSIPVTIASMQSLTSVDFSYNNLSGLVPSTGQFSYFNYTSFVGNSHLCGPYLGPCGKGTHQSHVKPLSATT
Sequence of CLV1 (Arabidopsis thaliana) (Q9SYQ8 25-638): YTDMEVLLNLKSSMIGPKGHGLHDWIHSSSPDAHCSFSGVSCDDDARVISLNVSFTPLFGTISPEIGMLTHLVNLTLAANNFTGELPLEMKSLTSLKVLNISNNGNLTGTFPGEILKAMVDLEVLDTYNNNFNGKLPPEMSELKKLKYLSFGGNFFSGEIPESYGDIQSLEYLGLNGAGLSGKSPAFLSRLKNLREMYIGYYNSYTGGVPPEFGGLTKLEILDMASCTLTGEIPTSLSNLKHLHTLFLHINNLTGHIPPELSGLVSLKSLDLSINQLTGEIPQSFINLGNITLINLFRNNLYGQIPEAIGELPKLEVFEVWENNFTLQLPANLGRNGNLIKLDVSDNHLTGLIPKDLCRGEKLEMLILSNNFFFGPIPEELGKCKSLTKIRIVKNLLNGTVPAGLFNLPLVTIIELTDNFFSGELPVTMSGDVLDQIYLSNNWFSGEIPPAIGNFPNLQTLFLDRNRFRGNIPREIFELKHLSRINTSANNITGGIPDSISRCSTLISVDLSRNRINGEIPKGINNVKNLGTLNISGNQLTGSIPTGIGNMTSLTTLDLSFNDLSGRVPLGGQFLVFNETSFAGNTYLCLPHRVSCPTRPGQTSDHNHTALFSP

IC50 [1]: 26000 nM
Molecule: CNC(=S)Nc1cc(OC)c(OC)cc1Cc1nccc2cc(OC)c(OC)cc12 [NPD12704]

cross-linked band, percent of the control, with 10 μM NPD12704 (% of the control) [2]: 46
Molecule: [^125I]ASA-[Ara3]CLV3 glycopeptide

cross-linked band, percent of the control, with 10 μM NPD12704 (% of the control) [2]: 62
cross-linked band, percent of the control, with 100 μM NPD12704 (% of the control) [6]: 33
Molecule: [^125I]ASA-CLE9 (peptide)

Second part, the molecule before the results:

Molecule: [Ara3]CLV3 (from UniProt Q9XF04)
Kd [3]: 1 nM

Molecule: CLE9 (from UniProt Q9FZE4)
Kd [4]: 1.8 nM
Kd [5]: 11.9 nM
